# Data published in US20210015937A1.
# Molecular target: human LAG-3 expressed on cells (human) (UniProt P18627)
# Experiment: cell-based or functional assay
# human LAG-3 expressed on cells (human), sequence (P18627 23-525 limits assumed): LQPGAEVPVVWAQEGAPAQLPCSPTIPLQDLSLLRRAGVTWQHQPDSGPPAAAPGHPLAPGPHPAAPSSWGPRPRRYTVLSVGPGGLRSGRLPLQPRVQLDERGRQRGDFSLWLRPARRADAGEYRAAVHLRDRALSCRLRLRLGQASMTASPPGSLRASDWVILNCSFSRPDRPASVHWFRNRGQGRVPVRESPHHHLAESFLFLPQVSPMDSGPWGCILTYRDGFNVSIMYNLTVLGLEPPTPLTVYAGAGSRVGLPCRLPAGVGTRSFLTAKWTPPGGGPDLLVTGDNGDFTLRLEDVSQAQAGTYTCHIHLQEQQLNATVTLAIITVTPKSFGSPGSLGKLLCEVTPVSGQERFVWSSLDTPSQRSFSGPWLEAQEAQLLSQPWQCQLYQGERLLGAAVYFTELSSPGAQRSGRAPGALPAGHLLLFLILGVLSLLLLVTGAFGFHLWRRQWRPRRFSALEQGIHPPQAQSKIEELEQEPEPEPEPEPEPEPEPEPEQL
row,"EC50 (M), NFAT-Luciferase Reporter Gene assay (LAG-3:MHCII) [M]",Substance
1,4e-09,Human anti-LAG3 antibody (Relatlimab analogue)
2,3.2e-08,Mouse anti-LAG3 antibody clone 17B4
